According to US9915665:

Key:
murine DLL4 (murine) [1] = biological target: murine DLL4 (murine) (UniProt Q9JI71); experiment: Biacore (SPR), DVD-Ig and muDLL4
murine DLL4 (murine) [2] = biological target: murine DLL4 (murine) (UniProt Q9JI71); experiment: Biacore (SPR), muDLL4; reference is the parental DVD
human DLL4 (human) [3] = biological target: human DLL4 (human) (UniProt Q9NR61); experiment: Biacore (SPR), huDLL4; reference is the parental DVD
human DLL4 (human) [4] = biological target: human DLL4 (human) (UniProt Q9NR61); experiment: Biacore (SPR), DVD-Ig and huDLL4

Sequence of UniProt Q9NR61 (Q9NR61 27-524 limits assumed): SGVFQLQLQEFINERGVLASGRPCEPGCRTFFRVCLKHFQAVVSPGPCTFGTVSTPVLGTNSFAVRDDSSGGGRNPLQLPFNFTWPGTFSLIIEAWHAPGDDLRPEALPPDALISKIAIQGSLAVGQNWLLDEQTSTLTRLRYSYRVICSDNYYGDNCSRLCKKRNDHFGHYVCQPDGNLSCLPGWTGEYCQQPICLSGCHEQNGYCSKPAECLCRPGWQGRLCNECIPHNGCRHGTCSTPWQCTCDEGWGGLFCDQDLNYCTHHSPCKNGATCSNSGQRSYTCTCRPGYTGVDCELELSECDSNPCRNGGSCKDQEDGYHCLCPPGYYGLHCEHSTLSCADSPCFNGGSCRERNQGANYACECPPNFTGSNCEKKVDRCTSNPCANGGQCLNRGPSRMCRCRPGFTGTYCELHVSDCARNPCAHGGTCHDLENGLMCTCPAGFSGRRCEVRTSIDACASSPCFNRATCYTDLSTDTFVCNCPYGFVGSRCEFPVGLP
Sequence of UniProt Q9JI71 (Q9JI71 27-525 limits assumed): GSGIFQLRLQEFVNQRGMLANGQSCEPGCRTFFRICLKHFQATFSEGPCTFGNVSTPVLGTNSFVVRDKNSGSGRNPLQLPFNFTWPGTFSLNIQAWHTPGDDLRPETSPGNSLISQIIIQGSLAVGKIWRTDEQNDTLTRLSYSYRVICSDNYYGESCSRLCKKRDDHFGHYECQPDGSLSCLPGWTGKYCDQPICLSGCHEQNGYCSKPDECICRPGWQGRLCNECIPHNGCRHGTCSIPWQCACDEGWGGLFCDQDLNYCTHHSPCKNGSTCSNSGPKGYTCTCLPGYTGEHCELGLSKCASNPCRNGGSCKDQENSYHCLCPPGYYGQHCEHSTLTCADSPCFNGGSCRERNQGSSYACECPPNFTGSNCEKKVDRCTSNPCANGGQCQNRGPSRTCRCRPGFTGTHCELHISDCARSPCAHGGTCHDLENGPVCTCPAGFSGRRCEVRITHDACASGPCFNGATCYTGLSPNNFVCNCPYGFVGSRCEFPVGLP

B1: h1A11.1-A10-S3-SS-Anti-VEGF DVD-Ig (bispecific antibody, part only; not given: anti-VEGF domains, h1A11.1 VL, constant regions, part only)
heavy, part: EVQLVESGGGLVQPGGSLRLSCAASGFTFRHFPMAWVRQAPGKGLEWVASISSSDGTSNYRDSVKGRFTISRDNAKSSLYLQMNSLRAEDTAVYYCARGYYNSPFAYWGQGTLVTVSSASTKGP
light, part: TVAAP
- Kd (murine DLL4 (murine) [1]): 0.774 nM
- koff (murine DLL4 (murine) [1]): 0.000133 s⁻¹
- kon (murine DLL4 (murine) [1]): 171000 M⁻¹ s⁻¹
- KD ratio (parental DVD/AM DVD) (murine DLL4 (murine) [2]): 53.8 fold

B2: h1A11.1-G7-S2-SS-Anti-VEGF DVD-Ig (bispecific antibody, part only; not given: anti-VEGF domains, h1A11.1 VL, constant regions, part only)
heavy, part: EVQLVESGGGLVQPGGSLRLSCAASGFTFNHFPMAWVRQAPGKGLEWVATISSSDWTPYYRDSVKGRFTISRDNAKNSLYLQMNSLRAEDTAVYYCARGYYNSPFAYWGQGTLVTVSSASTKGP
light, part: TVAAP
- Kd (murine DLL4 (murine) [1]): 1.57 nM
- koff (murine DLL4 (murine) [1]): 0.000266 s⁻¹
- kon (murine DLL4 (murine) [1]): 169000 M⁻¹ s⁻¹
- KD ratio (parental DVD/AM DVD) (murine DLL4 (murine) [2]): 13.6 fold
- KD ratio (parental DVD/AM DVD) (human DLL4 (human) [3]): 15.2 fold
- Kd (human DLL4 (human) [4]): 1.32 nM
- koff (human DLL4 (human) [4]): 0.000155 s⁻¹
- kon (human DLL4 (human) [4]): 117000 M⁻¹ s⁻¹

B3: h1A11.1-H3-S2-SS-Anti-VEGF DVD-Ig (bispecific antibody, part only; not given: anti-VEGF domains, h1A11.1 VL, constant regions, part only)
heavy, part: EVQLVESGGGLVQPGGSLRLSCAASGFTFRNFPMAWVRQAPGKGLEWVASISSSDGTTNYRDSVKGRFTISRDNAKSSLYLQMNSLRAEDTAVYYCARGYYNSPFAYWGQGTLVTVSSASTKGP
light, part: TVAAP
- Kd (murine DLL4 (murine) [1]): 1.49 nM
- koff (murine DLL4 (murine) [1]): 0.000294 s⁻¹
- kon (murine DLL4 (murine) [1]): 197000 M⁻¹ s⁻¹
- KD ratio (parental DVD/AM DVD) (murine DLL4 (murine) [2]): 14.3 fold
- KD ratio (parental DVD/AM DVD) (human DLL4 (human) [3]): 19.1 fold
- Kd (human DLL4 (human) [4]): 1.04 nM
- koff (human DLL4 (human) [4]): 0.000136 s⁻¹
- kon (human DLL4 (human) [4]): 130000 M⁻¹ s⁻¹

B4: h1A11.1-F7-S2-SS-Anti-VEGF DVD-Ig (bispecific antibody, part only; not given: anti-VEGF domains, h1A11.1 VL, constant regions, part only)
heavy, part: EVQLVESGGGLVQPGGSLRLSCAASGFTFRHFPMTWVRQAPGKGLEWVASISSSDGTINYRDSVKGRFTISRDNAKNSLYLQMNSLRAEDTAVYYCARGYYNSPFAYWGQGTLVTVSSASTKGP
light, part: TVAAP
- Kd (murine DLL4 (murine) [1]): 0.361 nM
- koff (murine DLL4 (murine) [1]): 0.000483 s⁻¹
- kon (murine DLL4 (murine) [1]): 1.34e+06 M⁻¹ s⁻¹
- KD ratio (parental DVD/AM DVD) (murine DLL4 (murine) [2]): 59.2 fold
- KD ratio (parental DVD/AM DVD) (human DLL4 (human) [3]): 35.9 fold
- Kd (human DLL4 (human) [4]): 0.556 nM
- koff (human DLL4 (human) [4]): 0.000319 s⁻¹
- kon (human DLL4 (human) [4]): 570000 M⁻¹ s⁻¹

B5: h1A11.1-A04-S3-SS-Anti-VEGF DVD-Ig (bispecific antibody, part only; not given: anti-VEGF domains, h1A11.1 VL, constant regions, part only)
heavy, part: EVQLVESGGGLVQPGGSLRLSCAASGFTFRHFPMAWVRQAPGKGLEWVATISSSDGATYYRDSVKGRFTISRDNAKSSLYLQMNSLRAEDTAVYYCARGYYNSPFAYWGQGTLVTVSSASTKGP
light, part: TVAAP
- Kd (murine DLL4 (murine) [1]): 0.451 nM
- koff (murine DLL4 (murine) [1]): 8.12e-05 s⁻¹
- kon (murine DLL4 (murine) [1]): 180000 M⁻¹ s⁻¹
- KD ratio (parental DVD/AM DVD) (murine DLL4 (murine) [2]): 92.2 fold

B6: h1A11.1-B9-S2-SS-Anti-VEGF DVD-Ig (bispecific antibody, part only; not given: anti-VEGF domains, h1A11.1 VL, constant regions, part only)
heavy, part: EVQLVESGGGLVQPGGSLRLSCAASGFTFSHFPMAWVRQAPGKGLEWVASISSSDSTTNYRDSVKGRFTISRDNAKNSLYLQMNSLRAEDTAVYYCARGYYNSPFAYWGQGTLVTVSSASTKGP
light, part: TVAAP
- Kd (murine DLL4 (murine) [1]): 1.23 nM
- koff (murine DLL4 (murine) [1]): 0.000205 s⁻¹
- kon (murine DLL4 (murine) [1]): 167000 M⁻¹ s⁻¹
- KD ratio (parental DVD/AM DVD) (murine DLL4 (murine) [2]): 17.4 fold
- KD ratio (parental DVD/AM DVD) (human DLL4 (human) [3]): 21.6 fold
- Kd (human DLL4 (human) [4]): 0.923 nM
- koff (human DLL4 (human) [4]): 0.000106 s⁻¹
- kon (human DLL4 (human) [4]): 115000 M⁻¹ s⁻¹
